Laboratory results as given in patent US20130196320A1, “METHOD FOR IMPROVING CLEAVAGE OF DNA BY ENDONUCLEASE SENSITIVE TO METHYLATION” (CELLECTIS, priority 2010, published 2013).

Key:
[1] = test system: ADCY9 target CpG in 293H cells; experiment: DNA methylation status of ADCY9 target by bisulfite technique; type: cell-based, human; details: 0.2 and 1 μM; 100% methylated without treatment
Method: The human 293H cells (ATCC) were plated at a density of 1.2×10^6 cells per 10 cm dish in complete medium (DMEM supplemented with 2 mM L-glutamine, penicillin (100 IU/ml), streptomycin (100 μg/ml), amphotericin B (Fongizone: 0.25 μg/ml, Invitrogen-Life Science) and 10% FBS). The cells were pre-treated with 5-aza-deoxycytidine at 0.2 μM or 1 μM, 48 hours before transfection and the treatment was maintained 48 hours post-transfection. The medium was changed every day. The cells were transfected with 5 μg of DNA plasmids encoding meganuclease using Lipofectamine 2000 transfection reagent (Invitrogen) according to the manufacturer's protocol.
The procedure as described in Example 4 was followed to assess the level of DNA methylation, except that we used specific primers to amplify the sequence surrounded the ADCY9 meganuclease recognition site. Primers ADCY9_F1 […] (SEQ ID NO: 43) and ADCY9_R1 […] (SEQ ID NO: 44) were used. PCR products were sequenced directly with primer ADCY9_F2 […] (SEQ ID NO: 45).

XPC4.1 DNA target = experiment: In vitro single turn over cleavage assay with XPC4.1; type: biochemical
Method: FIG. 8: In vitro cleavage of unmethylated or methylated XPC4.1 by XPC4. A constant amount of XPC4.1 duplex (50 nM) was incubated with an excess of XPC4 (1.5 μM, final concentration) in the reaction buffer (10 mM Tris-HCl, 150 mM NaCl, pH8) at 37° C. Cleavage reaction was triggered by the addition of MgCl2 and then stopped after different time lengths by the addition of the stop buffer. This was followed by one hour of incubation at 37° C. to digest XPC4 and release free DNA molecules. Cleaved and uncleaved DNA products were separated by PAGE using a TGX Any kD precast gel (Bio-Rad), stained with SYBR Green and then quantified using Quantity One software (Bio-Rad). […]
To investigate the influence of C1234 methylation on the nuclease activity of I-Cre I, in vitro single turn over cleavage assays were performed with either unmethylated or methylated C1234 duplexes (unmethylated C1234 composed of SEQ ID NO: 31+SEQ ID NO: 32, C1234_Me full composed of SEQ ID NO: 35+SEQ ID NO: 38, C1234_Me-6a/-5b composed of SEQ ID NO: 33+SEQ ID NO: 36, C1234_Me-3a/-2b composed of SEQ ID NO: 34+SEQ ID NO: 37, C1234_Me-3a composed of SEQ ID NO: 34+SEQ ID NO: 32, C1234_Me-2b composed of SEQ ID NO: 31+SEQ ID NO: 37, respectively). […] Cleaved and uncleaved DNA products were separated by PAGE using a TGX Any kD precast gel (Bio-Rad), stained with SYBR Green and then quantified using Quantity One software (Bio-Rad). […]

ADCY9.1 DNA target = experiment: In vitro single turn over cleavage assay with ADCY9.1; type: biochemical
Method: FIG. 13: In vitro cleavage of unmethylated or methylated ADCY9.1 by ADCY9. A constant amount of ADCY9.1 duplex (50 nM) was incubated with an excess of ADCY9 (1.5 μM, final concentration) in the reaction buffer (10 mM Tris-HCl, 150 mM NaCl, pH8) at 37° C. Cleavage reaction was triggered by the addition of MgCl2 and then stopped after different time lengths by the addition of the stop buffer. This was followed by one hour of incubation at 37° C. to digest ADCY9 and release free DNA molecules. Cleaved and uncleaved DNA products were separated by PAGE using a TGX Any kD precast gel (Bio-Rad), stained with SYBR Green and then quantified using Quantity One software (Bio-Rad). Disappearance of substrate (uncleaved DNA) is plotted as a function of time.
To investigate the influence of C1234 methylation on the nuclease activity of I-Cre I, in vitro single turn over cleavage assays were performed with either unmethylated or methylated C1234 duplexes (unmethylated C1234 composed of SEQ ID NO: 31+SEQ ID NO: 32, C1234_Me full composed of SEQ ID NO: 35+SEQ ID NO: 38, C1234_Me-6a/-5b composed of SEQ ID NO: 33+SEQ ID NO: 36, C1234_Me-3a/-2b composed of SEQ ID NO: 34+SEQ ID NO: 37, C1234_Me-3a composed of SEQ ID NO: 34+SEQ ID NO: 32, C1234_Me-2b composed of SEQ ID NO: 31+SEQ ID NO: 37, respectively). A constant amount of C1234 duplex (50 nM) was incubated with an excess of I-Cre I (1.5 μM, final concentration) in the reaction buffer (10 mM Tris-HCl, 150 mM NaCl, pH8) at 37° C. Cleavage reaction was triggered by the addition of MgCl2 and then stopped after different time lengths by the addition of the stop buffer (45% glycerol, 95 mM EDTA, 1.5% (w/v) SDS, 1.5 mg/mL proteinase K and 0.048% (w/v) bromophenol blue, final concentrations). This was followed by one hour incubation at 37° C. to digest I-Cre I and release free DNA molecules. Cleaved and uncleaved DNA products were separated by PAGE using a TGX Any kD precast gel (Bio-Rad), stained with SYBR Green and then quantified using Quantity One software (Bio-Rad). […]

Nc1ncn([C@H]2C[C@H](O)[C@@H](CO)O2)c(=O)n1 [5-aza-2′deoxycytidine, reference compound]
amount of methylated CpG within ADCY9 target [1]: 40%

B1: XPC4: engineered meganuclease (SEQ ID NO: 2) designed to cleave xeroderma pigmentosum group C gene (XPC) (protein)
chain: MANTKYNEEFLLYLAGFVDGDGSIIAQIKPNQSHKFKHALQLTFKVTQKTQRRWFLDKLVDEIGVGYVQDSGSVSNYILSEIKPLHNFLTQLQPFLELKQKQANLALKIIEQLPSAKESPDKFLEVCTWVDQVAALNDSKTRKTTSETVRAVLDSLSEKKKSSPAAGGSDKYNQALSKYNQALSKYNQALSGGGGSNKKFLLYLAGFVDSDGSIIAQIKPNQSHKFKHQLSLAFQVTQKTQRRWFLDKLVDRIGVGYVRDRGSVSDYILSKIKPLHNFLTQLQPFLKLKQKQANLVLKIIEQLPSAKESPDKFLEVCTWVDQVAALNDSKTRKTTSETVRAVLDSLSEKKKSSP
kcat (XPC4.1 DNA target; XPC4.1_Me −11a/−10b & +10a/+11b (fully methylated)): 0.0017 ± 0.00017 s⁻¹
kcat (XPC4.1 DNA target; unmethylated XPC4.1): 0.0013 ± 0.00017 s⁻¹

B2: ADCY9: engineered meganuclease (SEQ ID NO: 3) designed to cleave adenylate cyclase 9 gene (protein)
chain: MANTKYNEEFLLYLAGFVDGDGSIIAQIKPNQSYKFKHQLSLTFRVTQKTQRRWFLDKLVDEIGVGYVRDSGSVSNYDLSEIKPLHNFLTQLQPFLELKQKQANLVLKIIEQLPSAKESPDKFLEVCTWVDQVAALNDSKTRKTTSETVRAVLDSLSEKKKSSPAAGGSDKYNQALSKYNQALSKYNQALSGGGGSNKKFLLYLAGFVDSDGSIIAQIKPDQSYKFKHQLGLTFQVTQKTQRRWFLDKLVDRIGVGYVRDRGSVSDYILSEIKPLHNFLTQLQPFLKLKQKQANLVLKIIEQLPSAKESPDKFLEVCTWVDQVAALNDSKTRKTTSETVRAVLDSLSEKKKSSP
kcat (ADCY9.1 DNA target; ADCY9.1_Me −3a/−2b (fully methylated)): <1.7e-06 s⁻¹
substrate disappearance (ADCY9.1 DNA target; fully methylated ADCY9.1, even after 5 hours): no substrate disappearance was observed
kcat (ADCY9.1 DNA target; unmethylated ADCY9.1): 0.00095 ± 1.7e-05 s⁻¹
